Values of other authors in article PMC6886688.

Test system: Tyr134

For “Cellular retinoic acid binding protein 2 (CRABP2) (Homo sapiens (inferred; not stated in the article))”, the pKa is listed as roughly 7.6.
